# Experimental data published in article PMC2897144 (Hypertension, 2009).
# B1: G protein-coupled receptor kinase type 4 (enzyme, human (endogenous in RPTCs), UniProt P32298 1-578, looked up)
# chain: MELENIVANSLLLKARQGGYGKKSGRSKKWKEILTLPPVSQCSELRHSIEKDYSSLCDKQPIGRRLFRQFCDTKPTLKRHIEFLDAVAEYEVADDEDRSDCGLSILDRFFNDKLAAPLPEIPPDVVTECRLGLKEENPSKKAFEECTRVAHNYLRGEPFEEYQESSYFSQFLQWKWLERQPVTKNTFRHYRVLGKGGFGEVCACQVRATGKMYACKKLQKKRIKKRKGEAMALNEKRILEKVQSRFVVSLAYAYETKDALCLVLTIMNGGDLKFHIYNLGNPGFDEQRAVFYAAELCCGLEDLQRERIVYRDLKPENILLDDRGHIRISDLGLATEIPEGQRVRGRVGTVGYMAPEVVNNEKYTFSPDWWGLGCLIYEMIQGHSPFKKYKEKVKWEEVDQRIKNDTEEYSEKFSEDAKSICRMLLTKNPSKRLGCRGEGAAGVKQHPVFKDINFRRLEANMLEPPFCPDPHAVYCKDVLDIEQFSVVKGIYLDTADEDFYARFATGCVSIPWQNEMIESGCFKDINKSESEEALPLDLDKNIHTPVSRPNRGFFYRLFRRGGCLTMVPSEKEVEPKQC
# B2: caveolin-1 (natural protein, human (endogenous in RPTCs), UniProt Q03135 1-178, looked up)
# chain: MSGGKYVDSEGHLYTVPIREQGNIYKPNNKAMADELSEKQVYDAHTKEIDLVNRDPKHLNDDVVKIDFEDVIAEPEGTHSFDGIWKASFTTFTVTKYWFYRLLSALFGIPMALIWGIYFAILSFLHIWAVVPCIKSFLIEIQCISRVYSIYVHTVCDPLFEAVGKIFSNVRINLQKEI
# Assays:
# caveolin-1 = target: B2; experiment: co-IP
# [1] = target: B1; experiment: co-IP
Binder,decrease of co-immunoprecipitation in uRPTCs relative to nRPTCs (caveolin-1) [%],decrease of co-immunoprecipitation in uRPTCs relative to nRPTCs [1] [%]
B1,58,–
B2,–,55.6
